Source: paper PMC5241800, “A RuBisCO-mediated carbon metabolic pathway in methanogenic archaea” (Nature Communications, 2017)
Values belong to the molecule of their own block, whether it stands above or below them.

What was measured:
[1] = biological target: T1, M. hungatei RuBisCO (Mh-RuBisCO) (Methanospirillum hungatei, UniProt Q2FSY4); assay: coupled PGK / GAPDH carboxylase assay, NADH at […] nm; turnover only; type: biochemical; details: 2 mM RuBP, 50 mM NaHCO3, 20 mM MgCl2, pH 8.0, 25 °C, anaerobic
T1 construct: gene rbcL; recombinant in E. coli C43 (DE3), pET-15b, His6 tag cleaved by thrombin

[2] = biological target: Methanospirillum hungatei phosphoribulokinase (MhPRK) (Methanospirillum hungatei); assay: crystal structure; hanging-drop vapour diffusion at 20 °C; 2.5 Å; the asymmetric unit holds two MhPRK protomers (chains A and B) related by approximately two-fold noncrystallographic symmetry
[3] = substrate: O=C(CO)[C@H](O)[C@H](O)COP(=O)(O)O; assay: purified protein; type: biochemical, Methanothrix soehngenii; details: co-substrate ATP (2 mM), 10 mM MgCl2, 100 mM KCl, pH 8.0, 25 °C
[4] = substrate: Nc1ncnc2c1ncn2[C@@H]1O[C@H](COP(=O)(O)OP(=O)(O)OP(=O)(O)O)[C@@H](O)[C@H]1O; assay: purified protein; type: biochemical, Methanothrix soehngenii; details: co-substrate Ru5P (2 mM), 10 mM MgCl2, 100 mM KCl, pH 8.0, 25 °C
[5] = substrate: O=C(CO)[C@H](O)[C@H](O)COP(=O)(O)O; assay: purified protein; type: biochemical, Methanothrix thermoacetophila; details: co-substrate ATP (2 mM), 10 mM MgCl2, 100 mM KCl, pH 8.0, 25 °C
[6] = substrate: Nc1ncnc2c1ncn2[C@@H]1O[C@H](COP(=O)(O)OP(=O)(O)OP(=O)(O)O)[C@@H](O)[C@H]1O; assay: purified protein; type: biochemical, Methanothrix thermoacetophila; details: co-substrate Ru5P (2 mM), 10 mM MgCl2, 100 mM KCl, pH 8.0, 25 °C
[7] = substrate: O=C(CO)[C@H](O)[C@H](O)COP(=O)(O)O; assay: purified protein; type: biochemical, Methanospirillum hungatei; details: co-substrate ATP (2 mM), 10 mM MgCl2, 100 mM KCl, pH 8.0, 25 °C
[8] = substrate: Nc1ncnc2c1ncn2[C@@H]1O[C@H](COP(=O)(O)OP(=O)(O)OP(=O)(O)O)[C@@H](O)[C@H]1O; assay: purified protein; type: biochemical, Methanospirillum hungatei; details: co-substrate Ru5P (2 mM), 10 mM MgCl2, 100 mM KCl, pH 8.0, 25 °C

T1 sequence (Q2FSY4 entry or part of it): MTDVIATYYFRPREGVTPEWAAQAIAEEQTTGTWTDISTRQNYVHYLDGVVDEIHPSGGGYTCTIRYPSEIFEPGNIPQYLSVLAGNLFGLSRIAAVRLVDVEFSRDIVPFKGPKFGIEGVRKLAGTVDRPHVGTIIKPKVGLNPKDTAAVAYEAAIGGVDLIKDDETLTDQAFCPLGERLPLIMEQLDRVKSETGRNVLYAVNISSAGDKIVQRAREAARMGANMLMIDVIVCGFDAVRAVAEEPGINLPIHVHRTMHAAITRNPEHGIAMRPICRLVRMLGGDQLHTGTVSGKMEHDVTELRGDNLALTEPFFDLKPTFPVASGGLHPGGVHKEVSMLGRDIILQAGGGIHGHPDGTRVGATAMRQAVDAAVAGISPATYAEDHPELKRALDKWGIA

Molecule: O=C(COP(=O)(O)O)[C@H](O)[C@H](O)COP(=O)(O)O [RuBP]
- coupled PGK / GAPDH carboxylase assay, NADH at 340 nm; turnover only [1]: M. hungatei RuBisCO was found to have a specific activity for the carboxylase reaction

- stoichiometry N [2]: 2
Molecule: Methanospirillum hungatei phosphoribulokinase (MhPRK) (enzyme)

B1: Methanosaeta concilii PRK homologue (Mcprk) (Methanothrix soehngenii GP6) (protein)
chain: MRSLKDRIRESGRVFVFGIAGDSGSGKTTISRGIRRILGEDMVATFSMDDYHSLDRRQRKERNITPLHPDANQFDLLAEHLEALRRNERIDKPVYDHRTGEISGTVPFGPAPVIIVEGLHPLYTERLRSQIDFKIFVDPSRSVKRLWKIRRDVGERGYETGQVMAEILQREPDYKLYVDIQKIYAQIVIKIQDSRFHPSLLDSQSTLDWYSVRLIMEIMEHPVSEVSMNIDLSKILRRSEHEFSIEFQRDDYYGKRVGIMTMDGEIHQSMISDLEKKLGESLGTDGMISDRREEYVNAIGLAQLILTWNCVEKLDYLLQEEGY
notes: recombinant in E. coli C43 (DE3), pET15b, His6 tag, purified as MhPRK (thrombin-cleaved)
- Km [3]: 310 ± 80 µM
- Km [4]: 17.91 ± 2.02 µM

B2: Methanosaeta thermophila PRK homologue (Mtprk) (Methanothrix thermoacetophila PT) (protein)
chain: MRLLEKIRESGRVFVVAVAGDSGSGKTTFTRGIRRLLGEDVVSTFSMDDYHSLDRRQRKTLGITPLRPEANRFDLLAEHLAMLRRGLAIEKPVYDHTTGEIRGPVIFKPSPVIIVEGLHPFYTEELRKLSDFKIFVDPSRAVKRRWKLRRDVGERGYAPEDVMREILEREPDYKLYVDVQKVYAEMVIKIQDSRIPPEWTEIARGSAREKYSVRIIQQILDHPLDEVDLTIDLSRIMRLTEREFSIEFQRDDYYGKRVGVMTLDGEFPLTMIKDLERKLCDFLGRDVPSVTEGCQEDHGSYVNATEMTQLILIWRFLEKIANLAW
notes: as for B1
- Km [5]: 230 ± 50 µM
- Km [6]: 5.66 ± 0.21 µM

B3: MhPRK (M. hungatei PRK homologue) (Methanospirillum hungatei JF-1) (protein)
chain: MSQPENFREVIRHSPLVYLIGVAGDSGSGKSTFTRAISDIFGEELVSSITVDDYHLYDRKTRSEMGITPLLHTANNLKLLEENLMDLKAGRTIQKPVYLHDHGTFGEPELFSPTKFIIIEGLHPYATKSLRALYDYTIFVDPERDVKYDWKIRRDMKKRNYDKNEVLREILQREPDYFQYVFPQREVADAVIQISYSSYGKEEGEKRNVYRVMLSMPAQEYCFEDIELNIDLCDLFKKSSHDFSLSCISHTPDSRNMRALVVDGELMPDTIHKIERQIEFQTGISPINIFRGQEHITGTDLVRLILSWQIINGRIALSNHLDQ
notes: recombinant in E. coli C43 (DE3), pET-15b, His6 tag cleaved by thrombin; homodimer; residues up to 323
- Km [7]: 280 ± 50 µM
- Km [8]: 20.70 ± 1.70 µM
